Results taken from patent US20120100139A1 (APTEVO RESEARCH AND DEVELOPMENT, published 2012).

T1: CD86-mIgG (Ancell, Inc) (UniProt P42081 24-247, limits assumed)
T1 construct: Bought reagent
T1 sequence (looked up): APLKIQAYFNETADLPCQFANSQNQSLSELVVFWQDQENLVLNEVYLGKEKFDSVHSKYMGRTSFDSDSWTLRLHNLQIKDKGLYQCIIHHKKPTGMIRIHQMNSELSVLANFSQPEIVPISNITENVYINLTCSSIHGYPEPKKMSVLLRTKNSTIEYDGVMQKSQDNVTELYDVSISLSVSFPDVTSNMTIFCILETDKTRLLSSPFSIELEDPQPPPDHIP

T2: CD86 on cells (WIL2-S human B-lymphoblastoid cells; HuCD86-2A2 CHO cells expressing CD86) (human, UniProt P42081 24-329)
T2 construct: whole, on cells; also called cell surface CD86
T2 sequence (looked up): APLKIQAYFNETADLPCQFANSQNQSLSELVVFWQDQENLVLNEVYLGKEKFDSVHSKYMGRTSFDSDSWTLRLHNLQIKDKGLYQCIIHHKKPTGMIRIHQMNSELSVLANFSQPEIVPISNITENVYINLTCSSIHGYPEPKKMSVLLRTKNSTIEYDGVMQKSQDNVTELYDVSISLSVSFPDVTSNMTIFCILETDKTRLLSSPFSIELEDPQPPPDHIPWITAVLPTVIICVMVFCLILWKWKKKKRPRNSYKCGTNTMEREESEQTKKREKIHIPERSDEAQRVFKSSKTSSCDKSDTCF


Experiments:
[1] = target: T1, CD86-mIgG (Ancell, Inc); assay: SPR, CD86-mIgG immobilized; reference of the comparison
[2] = target: T2, CD86 on cells (WIL2-S human …); assay: flow cytometry on WIL2-S cells
Method: (§1) Briefly, WIL2-S or HuCD86-2A2 cells were incubated with test molecules containing a CD86 antagonist at concentrations ranging from saturation to background levels. […] After the incubation, cells were washed and a fluorophore (R-phycoerythrin) tagged F(Ab′)₂ antibody specific for the Fc portion of the xceptor molecule, IL10R-Ig fusion protein, or anti-IL10 antibody. The tagged cells were then passed through a flow cytometer and data was analyzed by plotting median fluorescence intensity of each sample.

[3] = target: T2, CD86 on cells (WIL2-S human …); assay: flow cytometry, HEK293 supernatants on HuCD86-2A2 cells
Method: as §1
In another experiment, different versions of humanized FUN1 SMIPs were tested for CD86 binding. Supernatants of HEK293 cells transiently transfected with the six different versions of humanized FUN1 SMIPs were examined for CD86 binding using HuCD86-2A2 cells.

binding result [1]	binding result [2]	binding result [3]	Binder
binds	binds	–	FUN1::IL10 xceptor (Fc fusion, anti-CD86 FUN1 scFv - Fc - IL10) EVQLQQSGPELEKPGASVKISCKASGYSFTDYNMNWVKQSNGKSLEWIGNIDPYYGGTSYNQKFKGKATLTVDKSSSTAYMQLNSLTSEDSAVYFCARWDYRYDDGRAYYVMDFWGQGTSVTVSSGGGGSGGGGSGGGGSGGGGSELQMTQSPSSLAASAGEKVTMSCKSSQSVLYSSNQKNYLAWYQQKPGQSPKLLIYWASTRESGVPDRFTGSGSGTHFTLTVSSVQAEDLAVYYCHQYLYSWTFGGGTNLEIKRLEPKSSDKTHTCPPCPAPEAAGAPSVFLFPPKPKDTLMISRTPEVTCVVVDVSHEDPEVKFNWYVDGVEVHNAKTKPREEQYNSTYRVVSVLTVLHQDWLNGKAYACAVSNKALPAPIEKTISKAKGQPREPQVYTLPPSRDELTKNQVSLTCLVKGFYPSDIAVEWESNGQPENNYKTTPPVLDSDGSFFLYSKLTVDKSRWQQGNVFSCSVMHEALHNHYTQKSLSLSPGNSLFNQEVQIPLTESYSPNSSPGQGTQSENSCTHFPGNLPNMLRDLRDAFSRVKTFFQMKDQLDNLLLKESLLEDFKGYLGCQALSEMIQFYLEEVMPQAENQDPDIKAHVNSLGENLKTLRLRLRRCHRFLPCENKSKAVEQVKNAFNKLQEKGIYKAMSEFDIFINYIEAYMTMKIRN
–	–	binds	FUN1-22 humanized FUN1 SMIP (Fc fusion, SMIP: scFv-hinge-Fc single chain) QVQLVQSGAEVKKPGASVKVSCKASGYTFTDYNMNWVRQAPGQGLEWMGNIDPYYGGTSYNQKFKGRVTMTRDTSISTAYMELSRLRSDDTAVYYCARWDYRYDDGRAYYVMDFWGQGTTVTVSSGGGGSGGGGSGGGGSGGGGSDIQMTQSPSSLSASVGDRVTITCKSSQSVLYSSNQKNYLAWYQQKPGKVPKLLIYWASTRESGVPSRFSGSGSGTDFTLTISSLQPEDVATYYCHQYLYSWTFGQGTKLEIKRLEPKSSDKTHTCPPCPAPEAAGAPSVFLFPPKPKDTLMISRTPEVTCVVVDVSHEDPEVKFNWYVDGVEVHNAKTKPREEQYNSTYRVVSVLTVLHQDWLNGKAYACAVSNKALPAPIEKTISKAKGQPREPQVYTLPPSRDELTKNQVSLTCLVKGFYPSDIAVEWESNGQPENNYKTTPPVLDSDGSFFLYSKLTVDKSRWQQGNVFSCSVMHEALHNHYTQKSLSLSPG
